{"source": "patent US20210063414A1", "about": "“METHODS FOR PREVENTING AND/OR TREATING BONE LOSS CONDITIONS BY MODULATING IRISIN” (Dana-Farber Cancer Institute, Inc., priority 2018, published 2021)", "key": {"integrin αV/β5": {"target": "T1, integrin αV/β5 (Homo sapiens, UniProt P06756+P18084)", "T1 construct": "expressed in transfected cells; host or cells: HEK293T", "T1 sequence (P06756 31-889 limits assumed)": "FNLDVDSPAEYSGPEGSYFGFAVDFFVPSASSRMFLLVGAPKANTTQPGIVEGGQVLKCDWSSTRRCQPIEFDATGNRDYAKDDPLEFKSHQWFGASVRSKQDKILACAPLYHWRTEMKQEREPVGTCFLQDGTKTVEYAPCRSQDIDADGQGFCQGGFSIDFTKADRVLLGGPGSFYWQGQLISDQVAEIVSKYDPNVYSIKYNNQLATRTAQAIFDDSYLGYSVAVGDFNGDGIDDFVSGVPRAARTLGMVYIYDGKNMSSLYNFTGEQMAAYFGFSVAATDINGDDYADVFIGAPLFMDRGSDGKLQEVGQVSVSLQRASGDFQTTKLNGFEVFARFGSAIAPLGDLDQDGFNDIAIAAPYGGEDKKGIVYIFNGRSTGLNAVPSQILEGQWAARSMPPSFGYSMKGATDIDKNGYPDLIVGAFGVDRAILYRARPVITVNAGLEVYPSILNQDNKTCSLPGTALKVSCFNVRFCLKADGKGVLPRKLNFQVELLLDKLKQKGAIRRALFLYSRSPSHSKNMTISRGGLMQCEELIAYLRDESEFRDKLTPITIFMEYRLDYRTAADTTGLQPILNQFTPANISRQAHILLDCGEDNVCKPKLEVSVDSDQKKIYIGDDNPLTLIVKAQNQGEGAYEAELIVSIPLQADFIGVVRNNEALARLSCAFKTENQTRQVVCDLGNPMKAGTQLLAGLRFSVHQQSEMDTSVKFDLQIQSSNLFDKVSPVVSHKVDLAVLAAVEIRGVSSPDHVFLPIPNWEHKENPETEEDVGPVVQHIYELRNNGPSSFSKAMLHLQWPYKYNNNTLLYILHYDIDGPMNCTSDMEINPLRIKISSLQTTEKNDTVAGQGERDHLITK", "T1 sequence (P06756 891-1048 partner limits assumed)": "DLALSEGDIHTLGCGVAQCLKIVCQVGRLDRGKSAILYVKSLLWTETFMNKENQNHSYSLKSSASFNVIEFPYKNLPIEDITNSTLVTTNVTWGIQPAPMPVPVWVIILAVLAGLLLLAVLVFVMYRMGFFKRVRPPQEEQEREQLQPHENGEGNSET", "T1 sequence (P18084 24-799)": "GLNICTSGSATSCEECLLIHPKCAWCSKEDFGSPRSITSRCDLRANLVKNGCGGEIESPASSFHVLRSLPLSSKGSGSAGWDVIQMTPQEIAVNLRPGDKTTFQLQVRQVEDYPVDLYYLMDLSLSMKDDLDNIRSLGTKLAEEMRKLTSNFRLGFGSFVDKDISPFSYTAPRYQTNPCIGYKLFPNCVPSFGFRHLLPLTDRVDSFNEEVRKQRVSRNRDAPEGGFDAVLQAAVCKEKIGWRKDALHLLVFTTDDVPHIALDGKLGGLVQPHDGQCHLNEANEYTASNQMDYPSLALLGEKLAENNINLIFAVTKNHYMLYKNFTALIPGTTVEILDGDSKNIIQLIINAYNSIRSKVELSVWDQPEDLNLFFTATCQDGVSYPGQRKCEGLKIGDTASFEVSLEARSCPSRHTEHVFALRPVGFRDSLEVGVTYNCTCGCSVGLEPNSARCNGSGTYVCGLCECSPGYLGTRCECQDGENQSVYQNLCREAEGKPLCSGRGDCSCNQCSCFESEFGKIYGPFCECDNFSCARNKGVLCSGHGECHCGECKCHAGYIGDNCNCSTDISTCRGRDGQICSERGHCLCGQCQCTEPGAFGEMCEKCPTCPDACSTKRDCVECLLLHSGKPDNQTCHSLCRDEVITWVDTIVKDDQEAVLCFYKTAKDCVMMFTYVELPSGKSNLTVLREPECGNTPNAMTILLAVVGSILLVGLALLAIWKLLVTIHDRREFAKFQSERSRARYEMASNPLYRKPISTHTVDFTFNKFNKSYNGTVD", "assay": "FAK phosphorylation in HEK293T cells with forced expression of integrin αV/β5", "type": "cell-based", "conditions": "HEK293T with integrin αV/β5, vitronectin-coated plates", "description": "100 nM irisin was incubated with 5 nM indicated his-tag integrins followed by immunoprecipitation using Ni-NTA agaroses. Precipitated integrins and co-precipitated irisin were analyzed by immunoblot analysis. […] HEK293T cells were seeded and incubated until 50% cell density. The cells were transfected with 0.1 μg plasmids of indicated integrins. After 48 hours, the cells were incubated with Freestyle293 medium for 3 hours and were treated with indicated concentration of irisin for 5 minutes. Cells were lysed to detect the indicated protein level using immunoblot analysis. […] MLO-Y4 cells were treated as described in FIG. 2D with addition of pretreatment of indicated antagonistic antibodies for 10 minutes. Cells were lysed to detect the indicated protein level using immunoblot analysis. […] MLO-Y4 cells were treated as described in FIG. 1B except with addition of the pretreatment of indicated antagonistic antibodies for 10 minutes. Sclerostin mRNA level was analyzed by qRT-PCR. Cyclophilin was used for house-keeping gene. […] The ribbon diagram is colored by HDX stabilization/destabilization. Percentages of deuterium differences are color-coded according to the smooth color gradient key at the bottom. Crystal structure of irisin dimer is from Protein Data Bank (PDB) (4 lsd) and a homology model of integrin β5 was built based on integrin β3 structure from PDB (4MMX).\n100 nM irisin was incubated with 5 nM indicated his-tag integrins followed by immunoprecipitation using Ni-NTA agaroses. Precipitated integrins and co-precipitated irisin were analyzed by immunoblot analysis. […] HEK293T cells were seeded and incubated until 50% cell density. The cells were transfected with 0.1 μg plasmids of indicated integrins. After 48 hours, the cells were re-split to indicated dose of vitronectin-coated plates. Cells were incubated with culture medium for 3 hours. Cells were lysed to detect the indicated protein level using immunoblot analysis. FIG. 15C and FIG. 15D show the immunoblot data. Cells were treated and analyzed as FIG. 14B except using plasmids encoding integrin α5/β1 or integrin α11/β1 (FIG. 15C) integrin αV/β1(FIG. 15D).\nMLO-Y4 cells were treated and analyzed as described in FIG. 5A with addition of pretreatment of control RGD peptide, cyclo RGDyK (cRGDyK), or SB273005. […] HEK293 cells were treated and analyzed as described in FIG. 14B except the treatment of different dose of cyclo RGDyK. […] 8 weeks old male mice were treated and analyzed as described in FIG. 5D except the additional group with co-injection of 1 mg/kg SB273005. […]\n(§1) Cells were harvested in RIPA buffer containing protease-inhibitor cocktail and phosphataseinhibitor cocktail. […] Protein levels were analyzed via western blot using indicated antibody. […]"}, "integrin αV/β3": {"target": "T2, integrin αV/β3 (Homo sapiens, UniProt P05106+P06756)", "T2 construct": "expressed in transfected cells; host or cells: HEK293T", "T2 sequence (P06756 31-889 limits assumed)": "as the sequence (P06756 31-889 limits assumed) above", "T2 sequence (P06756 891-1048 partner limits assumed)": "as the sequence (P06756 891-1048 partner limits assumed) above", "T2 sequence (P05106 27-788)": "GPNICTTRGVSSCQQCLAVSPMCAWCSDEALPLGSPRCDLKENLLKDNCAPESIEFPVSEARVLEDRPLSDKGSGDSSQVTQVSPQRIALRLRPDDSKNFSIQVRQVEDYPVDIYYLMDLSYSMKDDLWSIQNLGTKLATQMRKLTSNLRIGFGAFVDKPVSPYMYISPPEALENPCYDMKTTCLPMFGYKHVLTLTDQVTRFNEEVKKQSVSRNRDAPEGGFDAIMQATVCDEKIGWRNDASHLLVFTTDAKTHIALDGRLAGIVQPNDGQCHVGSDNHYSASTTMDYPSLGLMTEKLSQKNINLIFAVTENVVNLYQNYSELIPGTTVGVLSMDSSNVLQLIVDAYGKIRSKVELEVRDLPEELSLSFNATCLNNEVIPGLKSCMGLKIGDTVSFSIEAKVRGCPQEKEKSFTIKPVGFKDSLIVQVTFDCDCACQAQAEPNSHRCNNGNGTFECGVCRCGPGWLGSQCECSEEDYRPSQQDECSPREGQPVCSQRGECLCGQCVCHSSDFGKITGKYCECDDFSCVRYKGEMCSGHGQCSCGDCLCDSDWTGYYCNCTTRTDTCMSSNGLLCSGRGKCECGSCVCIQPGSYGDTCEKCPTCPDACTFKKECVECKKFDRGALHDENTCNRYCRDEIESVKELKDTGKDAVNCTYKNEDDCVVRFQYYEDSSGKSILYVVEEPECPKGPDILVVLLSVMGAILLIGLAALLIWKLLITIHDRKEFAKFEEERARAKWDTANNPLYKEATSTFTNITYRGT", "assay": "FAK phosphorylation in HEK293T cells with forced expression of integrin αV/β3", "type": "cell-based", "conditions": "HEK293T with integrin αV/β3, vitronectin-coated plates", "description": "100 nM irisin was incubated with 5 nM indicated his-tag integrins followed by immunoprecipitation using Ni-NTA agaroses. Precipitated integrins and co-precipitated irisin were analyzed by immunoblot analysis. […] HEK293T cells were seeded and incubated until 50% cell density. The cells were transfected with 0.1 μg plasmids of indicated integrins. After 48 hours, the cells were incubated with Freestyle293 medium for 3 hours and were treated with indicated concentration of irisin for 5 minutes. Cells were lysed to detect the indicated protein level using immunoblot analysis. […] MLO-Y4 cells were treated as described in FIG. 2D with addition of pretreatment of indicated antagonistic antibodies for 10 minutes. Cells were lysed to detect the indicated protein level using immunoblot analysis. […] Sclerostin mRNA level was analyzed by qRT-PCR. […]\n100 nM irisin was incubated with 5 nM indicated his-tag integrins followed by immunoprecipitation using Ni-NTA agaroses. Precipitated integrins and co-precipitated irisin were analyzed by immunoblot analysis. […] Cells were treated and analyzed as FIG. 14B except using plasmids encoding integrin α5/β1 or integrin α11/β1 (FIG. 15C) integrin αV/β1(FIG. 15D). […]\nas §1"}}}
{"substance": "Vitronectin: a ligand for integrin αV family, positive control [reference compound]", "values": [{"measurement": "phosphorylation of FAK (positive control)", "setting": "integrin αV/β5", "result": "induced phosphorylation of FAK"}, {"measurement": "phosphorylation of FAK (positive control)", "setting": "integrin αV/β3", "result": "induced phosphorylation of FAK"}]}
